Laboratory results: article PMC11381518, “Human cell surface-AAV interactomes identify LRP6 as blood-brain barrier transcytosis receptor and immune cytokine IL3 as AAV9 binder” (Nature Communications, 2024)

Columns and labels:
Experiment in all cases: pull-down; prey AAVs mixed with His-tagged bait protein and Ni-NTA resin in DPBS with 20 mM imidazole, 1 h at 4 °C; eluate analysed by Western blot with anti-VP1/VP2/VP3 and anti-6xHis
Settings in all cases: both partners purified
AAV9 capsid = target: T1, AAV9 capsid (adeno-associated virus 9, UniProt Q6JC40 1-736)
T1 construct: AAV9 capsid protein VP1; numbers count on VP1; Assembled capsid with a packaged genome; also called AAV9 (parent of vectors below); source: HEK293 cells, triple transfected, purified (iodixanol gradient); copies: 60

AAV.CAP-Mac capsid = target: T2, AAV.CAP-Mac capsid (adeno-associated virus 9, UniProt Q6JC40 1-736, VR VIII AA587-590 AQ - - - - - - - AQ to AQLNTTKPIAQ)
T2 construct: AAV9 capsid protein VP1 with an insertion in VR-VIII; numbers count on VP1; source: HEK293 cells, triple transfected, purified (iodixanol gradient); copies: 60

AAV9-X1.1 capsid = target: T3, AAV9-X1.1 capsid (adeno-associated virus 9, UniProt Q6JC40 1-736, VR IV AA452-458 NGSGQNQ to DGAATKN | VR VIII AA587-590 AQ - - - - - - - AQ to …)
T3 construct: AAV9 capsid protein VP1 with changes in VR-IV and VR-VIII; numbers count on VP1; also called AAV-X1.1; source: HEK293 cells, triple transfected, purified (iodixanol gradient); copies: 60

Measured: binding result

B1: human Adeno-Associated Virus Receptor (AAVR) PKD2 domain (AA 401-498) tagged with 6xHis (domain or fragment)
chain: EPRKNRPPIAIVSPQFQEISLPTTSTVIDGSQSTDDDKIVQYHWEELKGPLREEKISEDTAILKLSKLVPGNYTFSLTVVDSDGATNSTTANLTVNKA
notes: human AAVR (KIAA0319L), PKD2 domain, AA 401-498; source: E. coli BL21(DE3)-RIPL, purified (Ni-NTA)
binds: AAV9 capsid | AAV.CAP-Mac capsid | AAV9-X1.1 capsid
